{
  "source": "paper PMC4568394",
  "about": "“Differentially expressed seed aging responsive heat shock protein OsHSP18.2 implicates in seed vigor, longevity and improves germination and seedling establishment under abiotic stress” (Frontiers in Plant Science, 2015)",
  "target": "the molecule itself",
  "assay": "SEC; Superose 6 column; purified OsHSP18.2 run with molecular weight markers, Ve/Vo against log molecular weight; homooligomer",
  "data": [
    {"protein": "OsHSP18.2, a class II cytosolic small heat shock protein of rice (6X His tagged recombinant) (natural protein, Oryza sativa indica var. PB-1, UniProt Q5VRY1 1-166, looked up, OsHSP18.2, class II heat shock protein, Oryza sativa indica var; complete ORF / CDS, 166 aa, predicted 18.2 kDa; the indica PB-1 clone may differ from it; pET23b usually adds a C-terminal His6 tag; copies: 12) MESAMFGLETPLMTALQHLLDIPDGEGGAAGKQGATGGPTRAYVRDARAMAATPADVKDLPGAYAFVVDMPGLKSSDIKVQVEEERLLVISGERRRGGGEEEKEESCKYLRMERRMGKFMRKFVLPDNADVDKISAVCQDGVLTVTVEKLPPPEPKKPKTIEVKVA", "values": [
      {"measurement": "stoichiometry N", "result": "~12", "unit": "subunits"}
    ]}
  ]
}
